How the values were obtained:
[1] = molecular target: T1, CCL5-F12A (human), P13501; assay: NMR titration; pH titration followed by 1H,15N-HSQC; this point pH 3.2; 0.2 mM 15N-labelled protein, 25 mM sodium acetate, 150 mM NaCl, 10% D2O, 298 K; monomer to dimer; conditions: remark: other sources report otherwise
T1 chain: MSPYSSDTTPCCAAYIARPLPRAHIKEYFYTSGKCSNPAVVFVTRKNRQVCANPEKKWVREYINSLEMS

[2] = molecular target: the molecule itself; assay: NMR backbone relaxation (15N-R1, 15N-R2, 1H-15N NOE); pH 3.2, 298 K, 600 MHz, in the absence or presence of 180 mM ammonium sulfate; oligomeric state from R1, R2 and the R2/R1 ratio; monomer to dimer
[3] = molecular target: the molecule itself; assay: NMR titration; pH titration followed by 1H,15N-HSQC; this point pH 5.0 (for the wild type maintained until pH 6.0); 0.2 mM 15N-labelled protein, 25 mM sodium acetate, 150 mM NaCl, 10% D2O, 298 K; dimers to soluble oligomers, read from the loss of resonance intensity
[4] = molecular target: the molecule itself; assay: NMR titration; pH titration followed by 1H,15N-HSQC; this point pH 3.2; 0.2 mM 15N-labelled protein, 25 mM sodium acetate, 150 mM NaCl, 10% D2O, 298 K; monomer to dimer

B1: CCL5-F12A, P13501 24-91 (natural protein)
chain: MSPYSSDTTPCCAAYIARPLPRAHIKEYFYTSGKCSNPAVVFVTRKNRQVCANPEKKWVREYINSLEMS
B1 gave a stoichiometry N [1] of 2.

B2: CCL5-12AAA14 (natural protein, human)
chain: MSPYSSDTTPCCAAAIARPLPRAHIKEYFYTSGKCSNPAVVFVTRKNRQVCANPEKKWVREYINSLEMS
notes: starting Met residue (M0) that precedes residues 1-68 of the mature CCL5; numbers count on: the mature protein; 15N- or 15N,13C-labelled for the NMR experiments; In the crystal the first five N-terminal residues were not modelled; also called 12AAA14 mutant
For B2, the “stoichiometry N” value [2] was 2.

B3: CCL5-Y14A (natural protein, human)
chain: MSPYSSDTTPCCFAAIARPLPRAHIKEYFYTSGKCSNPAVVFVTRKNRQVCANPEKKWVREYINSLEMS
notes: starting Met residue (M0) that precedes residues 1-68 of the mature CCL5; CCL5 (RANTES), human, residues 1-68 of the mature CCL5, with Y14A; numbers count on: the mature protein; 15N-labelled for the NMR experiments
B3: binds [3].

B4: human CC-type chemokine ligand 5 (CCL5) (natural protein)
chain: MSPYSSDTTPCCFAYIARPLPRAHIKEYFYTSGKCSNPAVVFVTRKNRQVCANPEKKWVREYINSLEMS
notes: starting Met residue (M0) that precedes residues 1-68 of the mature CCL5; CCL5 (RANTES), human, residues 1-68 of the mature CCL5; numbers count on: the mature protein; 15N-labelled for the NMR experiments; vector pET43.1a(+); also called RANTES; native CCL5
For B4, the “stoichiometry N” value [4] was 2.
